According to the DeepSol protein solubility set:

experiment: soluble on expression in E. coli; label from the status in PepcDB or PDB records

Sequence	soluble on expression in E. coli
METRTYAIGVEATMDVIGGKWKPIILCNLRHGAMRPSDLKRGITGISQKMLTQQLRELEEDNIIERKVYNQVPPKVEYYLSDYGQSLSAVLDNLCNWGESHVAHLQEQGQEIYLKCED	not soluble
MVQVGAAAINRVDVAVIGGGIAGVAIAEYVARHTNLSVQLLEQNSHLGGDSSGKLEGWFHTGALYSGQDDGQTFFNCVNGVEDLLNHYSHYFAGRCNLTLEQFDHGYRPTVTGAGWFDPNPVYLIHPQRHSPEMLQSGLKGDRVQLEMQLKRVLGRLEMAYGQQFNWRSPTGNGAVAPDYDHLESYEQRSCSLLGQSEKISHYCQQFDLSHGVKPSDYALLKSLDCAMDTQGILQDLTASALAHGTAIATGINLEQINVDRYGPVRVQSIFYRDCQGQQHYLKAKAFIFAVGAGFERILPTLQVRAKLKQSRSTMVVAYPAISSHNFVRMSTKNSYHFNHFFQRANIPDSSEFLNYSMLANSGYVSNENDYLASGEIELLLDTAARYFSEENLYQRQLWSYDCVKTEFISDDAQKRRYSYWIEVNPQSNYLCVLPGKFSFFPTVAVQTLKQLKTILPTEEVDRSHRDYSAHYHQAQALVASPYPHQLLASYWKNNANSLEHHHHHH	soluble
EDAWEANDPLGSLSIRYLEAAQDSQWHRELLLAGTDINHHVFRDLVTPRNPRSRFSFAMYLKEQGRMFDFGLLGRPASRHEWSDYLAWVSRQVDSQTCFNTPVTGIDPVLRNGRLHEVRVCTPQTCFTTRNVVLSSGSAPRIPHAFEALLGPTLFHTSQFLTRLQAFGEYLPKRWLVLGSGQSASESVLELVSRDHAIEV	not soluble
MSRPPSRPRMMCARVLLLLSVTGLVLACETGPSSGDYEQAVMQDRVQRDMQMREKESVLPPGRREAFRGLNFYEVDPAYRYTVPLRRFETPDTVMIPESTGDLRPQQRIGEVTVPLPEGPEELVVFRGEGDTPRGRLWIPFADSTNRHATYKGGRYVDLTSTDSDSVVVDFNRAYNPTCAYNPDFACPLPPPENRIAVPVAAGEKRPTFGGLEHHHHHH	not soluble
MTARAVRGTKDLFGKELRMHQRIVATARKVLEAAGALELVTPIFEETQVFEKGVGAATDIVRKEMFTFQDRGGRSLTLRPEGTAAMVRAYLEHGMKVWPQPVRLWMAGPMFRAERPQKGRYRQFHQVNYEALGSENPILDAEAVVLLYECLKELGLRRLKVKLSSVGDPEDRARYNAYLREVLSPHREALSEDSKERLELNPMRILDSKSERDQALLKELGVRPMLDFLGEEARAHLKEVERHLERLSVPYELEPALVRGLDYYVRTAFEVHHEEIGAQSALGGGGRYDGLSELLGGPRVPGVGFAFGVERVALALEAEGFGLPEEKGPDLYLIPLTEEAVAEAFYLAEALRPRLRAEYALAPRKPAKGLEEALKRGAAFAGFLGEDELRAGEVTLKRLATGEQVRLSREEVPGYLLQALG	soluble
YDKRIHRFRKGWNSLIPTHNKIQYAGNMGMFSFGTGWDYGKRDQWETDLFFGFIPKHDSHRAKMTMTLKQNYMPWSLELGKGFSTEPLACGIYFNTVFGHEFWVHEPSRYPEGYYGFSSKIRTHIFLGQRLTYDIDRERRFFAKSVTLFYELSTCDLLLISRVTNSYLRARDYLSLSFGLKFQWL	not soluble
MSLKKLIVLTCTLSLLTACGDSIEKKAGEKLAAARAAFEHNDYNEAKLQIDSIKILYPKAFDTRKEGIKLMQQVELKEQQESLVYLDSMLQVKQEEFEAIKNKYTFEKNEEYQKIGNYFWPTQTVEKNLHRSFLRFQVNEQGVMTLTSIYCGPSNIHHVAVKVIAPDGSFAETPASNDSYETTDLGEKIEKADYKMGEDGNVLSFLYMNRDKKNIRVEYLGERKFSTTMTPSDREALVGTYELAKLLSSIRQIQQEKEEANLKIEFVKRKMEQKAQEEAAEKEGHHHHHH	soluble
MGSDKIHHHHHHMATRHDRDGGQTTANLTIATGLDAFTRKEWATLAGTTRSDSDYNPFISHEFLAALEESGCAARRTGWLPQHLRLEDANGSLLGVVPCYLKSHSKGEYVFDYGWADAFERAGGQYYPKLQVSVPFTPVTGPRLLASKDADPDAVRQALAEGLKTLTDRLGVSSLHVTFAPRSETEVLSHAGFLTRTDQQFHFFNEGYGSYEDFLEALASRKRKALKKERRTAVEAGMEIEWLTGRDITEAAWDDFFAFYMDTASRKWGRPYLNRLFFSLIGERMADDILLVMAKRGSRYIAGAINFIGSDALYGRNWGAIEHHPFLHFEVCYHQAIEFAIAKGLKRVEAGAQGEHKLARGYLPVTTYSAHYIAHPGLRRAVADYLSRERREVEAIGDFLTEHSPYKKG	not soluble
KAHGNFPVYRNTDVTFLPTGEAFFEKMKEELLKAKKYIFLEFFIIDEGIMWGEILSILEQKVEEGVEVRILYDGMIEITKLSFDYTKRLEKIGIKAKAFSPISPFISTYYNYRDHRKIVVIDGVVGMTGGVNLADEYINHIELFGHWKDSGIMLKGKAVDSFLLLFLQMWSITEEKMLVAPYLGVHDDLVENEGYVIPYGDSPLDTDKVGENV	not soluble
MGSDKIHHHHHHMSTRESRHPVVSRSQWLAARYYLWLHEKAFTHHRDALTAARRALPWVKVEQDYRFFGPNGALSLADLFAGRSQLLLYHFMFAEGWSEGCPGCSFLADHYDGANLHLAHHDVSLVAVSRAPYAEFQAFRQRMGWQFPWYSSHGSDFNEDFGVSVGSEGQRQYNYEPYEGNESELPGLSAFFREGDGSVYHTYSTYARGLDILVNTYNFLDIAPLGRNEGGTMDWVRHHDRYEGQPDKPHCCHR	not soluble
MSAIKEVKSELRQFMKTLLGKISKEETQRQTEAVFEKIIESKWFQESKRLSVYVSTSGEIQTDSIIQKALEMGKEVFIPQFTKGSTAMDMVRVPDQTAFDNLPSTLWGIRQPEPKWKWQSYHETGPLDLILAPGVAFSPYGLRCGHGKGYYDRFFSTHHKHFPENSPKKIGLALREQIIGTIPISETDVELDEVIYEGETIIFDTI	soluble
GSHMRLGAQSIQPTANLDRTDDLVYLNVMELVRAVLELKNELAQLPPEGYVVVVKNVGLTLRKLIGSVDDLLPSLPSSSRTEIEGTQKLLNKDLAELINKMRLAQQNAVTSLSEECKRQMLTASHTLAVDAKNLLDAVDQAKVLANLAHPPAE	soluble
MSLSVTRENFDEWMVPVYVPAPFIPVRGEGSRLWDQQGKEYIDFAGGIAVNALGHAHPALREALNEQANRFWHIGNGYTNEPALRLAKKLIDATFAERVFFCNSGAEANEAALKLARKYAHDRVGNHKSGIVAFKNAFHGRTLFTVSAGGQPTYSQDFAPLPPDIRHAAYNDLNSASALIDDNTCAVIVEPVQGEGGVIPATKAFLQGLRELCDRHQALLIFDEVQTGVGRTGELYAYMHYGVTPDILTTAKALGGGFPIGAMLTTQDYASVMTPGTHGTTYGGNPLATAVAGKVLDIINTPEMQNGVRQRHDAFIERLNTLNVRFGMFSEIRGLGLLLGCVLQTEFAGKAKLIAQEAAKAGVMVLIAGGDVVRFAPALNVSDEEIATGLDRFALACERLQTGGVPCG	not soluble
MSLQPVPDAGPWGDYLCDSPWALINSSIYAMKEIEPEPDFILWTGDDTPHVPDEKLGEAAVLEIVERLTKLIREVFPDTKVYAALGNHDFHPKNQFPAGSNNIYNQIAELWKPWLSNESIALFKKGAFYCEKLPGPSGAGRIVVLNTNLYYTSNALTADMADPGQQFQWLEDVLTDASKAGDMVYIVGHVPPGFFEKTQNKAWFREGFNEKYLKVVRKHHRVIAGQFFGHHHTDSFRMLYDDAGVPISAMFITPGVTPWKTTLPGVVNGANNPAIRVFEYDRATLSLKEGHHHHHH	not soluble
MVNKRTVTELSLFAGLIVSMHVAYYTIQNNPSLVAPHQRQELFYVRWLKEKIPALRPYGVTDDKTPKADQ	not soluble
MNLRTQKFHMYFKQWIELYKEGAVRPVTYQKYQMSHKHLVTLAPDLHMDELKRRTYQELINEFAANHEKQTTLDFHHHLKAAILDALDEGILEQDPTRKVVIKGTLEHHHHHH	soluble
MVRGFYLRFGEGVSEEANRRALALAEALLRAPPPGLLDAVPAYGVLYLEYDPRRLSRGRLLRLLKGLPQERAEEGRVVEIPVRYDGEDLPEVASRLGLSLEAVKALHQKPLYRVYALGFTPGFPFLAEVEPALRLPRKPHPRPRVPAHAVAVAGVQTGIYPLPSPGGWNLLGTSLVAVYDPHRETPFLLRPGDRVRFLEAEGPTPPEPRPLELLPEEPRLPALLVEEPGLMDLVVDGGRFLGGHLGLARSGPLDAPSARLANRLVGNGAGAPLLEFAYKGPVLTALRDLVAAFAGYGFVALLEGEEIPPGQSFLWPRGKTLRFRPRGPGVRGYLAVAGGLEVRPFLGSASPDLRGRIGRPLWAGDVLGLEALRPVRPGRAFPQRPLPEAFRLRLLPGPQFAGEAFRALCSGPFRVARADRVGVELLGPEVPGGEGLSEPTPLGGVQVPPSGRPLVLLADKGSLGGYAKPALVDPRDLWLLGQARPGVEIHFTSG	soluble
MTIEEIARIVEGEILCGNKDLNIERAVATDLMSDVLAFAEPNVLLITGLHSPQAVRTAMVVGIPAVLFVRKRDIPETIVNFAKECNITVLATNLSMFETCGRLYMNGLKPVRRAIE	not soluble
MGHHHHHHSHMWVDDFPLHRSACEGDSELLSRLLSERFSVNQLDSDHWAPIHYACWYGKVEATRILLEKGKCNPNLLNGQLSSPLHFAAGGGHAEIVQILLNHPETDRHITDQQGRSPLNICEENKQNNWEEAAKLLKEAINKPY	not soluble
MGSDKIHHHHHHLTLESKYHKKPEEIEEEQLWIEKAKQNPQHFAVLYEKYYKTIFLYLFRKVNDMDVAGDLCSDVFSKALSAIQSYEYKGVPYSAWLYRIAANEANMYFRKHNKREMICIDDTSIHLLNEDLQESNEENIYLTFLPLCLERLKPDEVILVQWRFFENKAFKEVGEIMNMTENNAKVKTYRILEKIRKWMLEMKGKSNE	not soluble
MLIHIGIDDTDSPNGMCTTYIGAILYREISKIAEPLDFPRLIRLNPNVPYKTRGNGAVAMSFKIDEEKIKEVKTLVIRYVRELADIDHENTNPGIVFLIGEVPKELEEFSLRALREHVTIEEAEHVARKVNAEVYKFKLGRGIIGGLAAIGYPLEKFTYELLAYRKREYWGTPRRVIKESVFYADKWSYPFTYDNVDPYKRTVLITPHGKDPVLVGIRGIDVGKILQVFEMIKIEEPIEFFQVYKTNQNTDDHLVVKKIKDVKPYDNVVIRGKVAGKYWEKGRHVFFELEDETGKIRVAAFEPTKKFRNYVRKLLPGDEVIIAGGVKEFEGVLTVNLEKFYPVNLVPKVEYEKPRCPKCGGTMKSKGDYLKCKKCGYKMEKILTPVKRPRDLKKKIYEVPPDARKHISRPLVLPGGEDKILEALLEHHHHHH	soluble
MGSDKIHHHHHHEEAEAHQKPVEIQPETVKIARNSELTIVPLYTPYQKYLKASLKTDDPEMDKKYYAKYVLSYIDEIGEQEKFSTADLKGNFMLQSTSYEQELLNRIDTLMKQHDKIKEVITENYIAAHKILPKKKSTIFIVPSNSDFPTMSESLAGVTGAAYKDAFVLYLDQTFDKNVLAYTIAHEYHHLILHDTPDFKISSVLKSVIVEGKADAFADRIVKGVSPPWDVPMDNTTKKHVAGLVNNYETTFNDVTFGNEQKDIPRWSNYILGRDILNHYLKSNPNLSIKEWTYKDEHEILKDYKYQNILE	not soluble
MGSHHHHHHDITSLYKKAGSENLYFQGMKFSEECRSAAAEWWEGSFVHPFVQGIGDGTLPIDRFKYYVLQDSYYLTHFAKVQSFGAAYAKDLYTTGRMASHAQGTYEAEMALHREFAELLEISEEERKAFKPSPTAYSFTSHMYRSVLSGNFAEILAALLPCYWLYYEVGEKLLHCDPGHPIYQKWIGTYGGDWFRQQVEEQINRFDELAENSTEEVRAKMKENFVISSYYEYQFWGMAYRKEGWSDSAIKEVEECGASRHNG	soluble
